{"source": "patent US20140178854A1", "key": {"[1]": {"biological_target": "gp70 env protein of amphotropic MLV (4070A envelope), on purified viral particles (amphotropic murine leukemia virus (4070A envelope))", "sequence (P21995 whole entry)": "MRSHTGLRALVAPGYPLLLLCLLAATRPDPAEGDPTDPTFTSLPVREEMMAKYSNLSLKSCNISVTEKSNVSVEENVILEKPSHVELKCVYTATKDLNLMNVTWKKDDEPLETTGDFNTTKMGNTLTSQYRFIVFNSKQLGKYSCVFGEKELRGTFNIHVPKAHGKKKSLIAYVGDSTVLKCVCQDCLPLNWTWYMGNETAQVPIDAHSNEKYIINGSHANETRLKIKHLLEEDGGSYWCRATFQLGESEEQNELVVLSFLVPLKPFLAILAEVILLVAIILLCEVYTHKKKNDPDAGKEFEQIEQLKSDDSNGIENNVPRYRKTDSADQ", "test": "ELISA on plate-bound MLV, dilution factor 10, Exp073-DTV Plate 1"}, "[2]": {"biological_target": "gp70 env protein of amphotropic MLV (4070A envelope), on purified viral particles (amphotropic murine leukemia virus (4070A envelope))", "test": "ELISA on plate-bound MLV, dilution factor 10, Exp121-Ana Plate 2"}, "[3]": {"biological_target": "gp70 env protein of amphotropic MLV (4070A envelope), on purified viral particles (amphotropic murine leukemia virus (4070A envelope))", "test": "ELISA on plate-bound MLV, dilution factor 50, Exp072-DTV Plate 1"}, "[4]": {"biological_target": "gp70 env protein of amphotropic MLV (4070A envelope), on purified viral particles (amphotropic murine leukemia virus (4070A envelope))", "test": "ELISA on plate-bound MLV, dilution factor 50, Exp072-DTV Plate 2"}, "[5]": {"biological_target": "gp70 env protein of amphotropic MLV (4070A envelope), on purified viral particles (amphotropic murine leukemia virus (4070A envelope))", "test": "ELISA on plate-bound MLV, dilution factor 50, Exp121-Ana Plate 1"}, "[6]": {"biological_target": "gp70 env protein of amphotropic MLV (4070A envelope), on purified viral particles (amphotropic murine leukemia virus (4070A envelope))", "test": "ELISA on plate-bound MLV, dilution factor 50, Exp121-Ana Plate 2"}, "[7]": {"biological_target": "gp70 env protein of amphotropic MLV (4070A envelope), on purified viral particles (amphotropic murine leukemia virus (4070A envelope))", "test": "ELISA on plate-bound MLV, dilution factor 250, Exp073-DTV Plate 1"}, "[8]": {"biological_target": "gp70 env protein of amphotropic MLV (4070A envelope), on purified viral particles (amphotropic murine leukemia virus (4070A envelope))", "test": "ELISA on plate-bound MLV, dilution factor 250, Exp074-DTV Plate 2"}, "[9]": {"biological_target": "gp70 env protein of amphotropic MLV (4070A envelope), on purified viral particles (amphotropic murine leukemia virus (4070A envelope))", "test": "ELISA on plate-bound MLV, dilution factor 250, Exp121-Ana Plate 2"}, "[10]": {"biological_target": "gp70 env protein of amphotropic MLV (4070A envelope), on purified viral particles (amphotropic murine leukemia virus (4070A envelope))", "test": "ELISA on plate-bound MLV, dilution factor 1250, Exp073-DTV Plate 1"}, "[11]": {"biological_target": "gp70 env protein of amphotropic MLV (4070A envelope), on purified viral particles (amphotropic murine leukemia virus (4070A envelope))", "test": "ELISA on plate-bound MLV, dilution factor 1250, Exp125-Ana Plate 1"}, "[12]": {"biological_target": "gp70 env protein of amphotropic MLV (4070A envelope), on purified viral particles (amphotropic murine leukemia virus (4070A envelope))", "test": "ELISA on plate-bound MLV, dilution factor 6250, Exp072-DTV Plate 1"}, "[13]": {"biological_target": "gp70 env protein of amphotropic MLV (4070A envelope), on purified viral particles (amphotropic murine leukemia virus (4070A envelope))", "test": "ELISA on plate-bound MLV, dilution factor 6250, Exp072-DTV Plate 2"}, "[14]": {"biological_target": "gp70 env protein of amphotropic MLV (4070A envelope), on purified viral particles (amphotropic murine leukemia virus (4070A envelope))", "test": "ELISA on plate-bound MLV, dilution factor 6250, Exp074-DTV Plate 1"}, "[15]": {"biological_target": "gp70 env protein of amphotropic MLV (4070A envelope), on purified viral particles (amphotropic murine leukemia virus (4070A envelope))", "test": "ELISA on plate-bound MLV, dilution factor 6250, Exp121-Ana Plate 2"}, "[16]": {"biological_target": "gp70 env protein of amphotropic MLV (4070A envelope), on purified viral particles (amphotropic murine leukemia virus (4070A envelope))", "test": "ELISA on plate-bound MLV, dilution factor 31250, Exp072-DTV Plate 1"}, "[17]": {"biological_target": "gp70 env protein of amphotropic MLV (4070A envelope), on purified viral particles (amphotropic murine leukemia virus (4070A envelope))", "test": "ELISA on plate-bound MLV, dilution factor 31250, Exp073-DTV Plate 1"}, "[18]": {"biological_target": "gp70 env protein of amphotropic MLV (4070A envelope), on purified viral particles (amphotropic murine leukemia virus (4070A envelope))", "test": "ELISA on plate-bound MLV, dilution factor 31250, Exp074-DTV Plate 1"}, "[19]": {"biological_target": "gp70 env protein of amphotropic MLV (4070A envelope), on purified viral particles (amphotropic murine leukemia virus (4070A envelope))", "test": "ELISA on plate-bound MLV, dilution factor 31250, Exp125-Ana Plate 2"}, "[20]": {"biological_target": "gp70 env protein of amphotropic MLV (4070A envelope), on purified viral particles (amphotropic murine leukemia virus (4070A envelope))", "test": "ELISA on plate-bound MLV, dilution factor 156250, Exp072-DTV Plate 1"}, "[21]": {"biological_target": "gp70 env protein of amphotropic MLV (4070A envelope), on purified viral particles (amphotropic murine leukemia virus (4070A envelope))", "test": "ELISA on plate-bound MLV, dilution factor 156250, Exp073-DTV Plate 2"}, "[22]": {"biological_target": "gp70 env protein of amphotropic MLV (4070A envelope), on purified viral particles (amphotropic murine leukemia virus (4070A envelope))", "test": "ELISA on plate-bound MLV, dilution factor 156250, Exp074-DTV Plate 1"}, "[23]": {"biological_target": "gp70 env protein of amphotropic MLV (4070A envelope), on purified viral particles (amphotropic murine leukemia virus (4070A envelope))", "test": "ELISA on plate-bound MLV, dilution factor 156250, Exp125-Ana Plate 1"}, "[24]": {"biological_target": "gp70 env protein of amphotropic MLV (4070A envelope), on purified viral particles (amphotropic murine leukemia virus (4070A envelope))", "test": "ELISA on plate-bound MLV, dilution factor 781250, Exp073-DTV Plate 2"}, "[25]": {"biological_target": "gp70 env protein of amphotropic MLV (4070A envelope), on purified viral particles (amphotropic murine leukemia virus (4070A envelope))", "test": "ELISA on plate-bound MLV, dilution factor 781250, Exp122-Ana Plate 2"}, "[26]": {"biological_target": "gp70 env protein of amphotropic MLV (4070A envelope), on purified viral particles (amphotropic murine leukemia virus (4070A envelope))", "test": "ELISA on plate-bound MLV, dilution factor 6250, inter-assay mean of six experiments"}}}
{"substance": "83A25 monoclonal antibody (rat IgG2a, anti-gp70)", "values": [{"measurement": "Mean OD", "setting": "[1]", "result": 2.43, "unit": "OD"}, {"measurement": "Mean OD", "setting": "[2]", "result": 2.65, "unit": "OD"}, {"measurement": "Mean OD", "setting": "[3]", "result": 1.75, "unit": "OD"}, {"measurement": "Mean OD", "setting": "[4]", "result": 1.86, "unit": "OD"}, {"measurement": "Mean OD", "setting": "[5]", "result": 2.43, "unit": "OD"}, {"measurement": "Mean OD", "setting": "[6]", "result": 2.46, "unit": "OD"}, {"measurement": "Mean OD", "setting": "[7]", "result": 2.05, "unit": "OD"}, {"measurement": "Mean OD", "setting": "[8]", "result": 1.89, "unit": "OD"}, {"measurement": "Mean OD", "setting": "[9]", "result": 2.25, "unit": "OD"}, {"measurement": "Mean OD", "setting": "[10]", "result": 1.78, "unit": "OD"}, {"measurement": "Mean OD", "setting": "[11]", "result": 1.44, "unit": "OD"}, {"measurement": "Mean OD", "setting": "[12]", "result": 0.558, "unit": "OD"}, {"measurement": "Mean OD", "setting": "[13]", "result": 0.612, "unit": "OD"}, {"measurement": "Mean OD", "setting": "[14]", "result": 0.636, "unit": "OD"}, {"measurement": "Mean OD", "setting": "[15]", "result": 0.758, "unit": "OD"}, {"measurement": "Mean OD", "setting": "[16]", "result": 0.202, "unit": "OD"}, {"measurement": "Mean OD", "setting": "[17]", "result": 0.282, "unit": "OD"}, {"measurement": "Mean OD", "setting": "[18]", "result": 0.253, "unit": "OD"}, {"measurement": "Mean OD", "setting": "[19]", "result": 0.239, "unit": "OD"}, {"measurement": "Mean OD", "setting": "[20]", "result": 0.116, "unit": "OD"}, {"measurement": "Mean OD", "setting": "[21]", "result": 0.139, "unit": "OD"}, {"measurement": "Mean OD", "setting": "[22]", "result": 0.145, "unit": "OD"}, {"measurement": "Mean OD", "setting": "[23]", "result": 0.136, "unit": "OD"}, {"measurement": "Mean OD", "setting": "[24]", "result": 0.11, "unit": "OD"}, {"measurement": "Mean OD", "setting": "[25]", "result": 0.141, "unit": "OD"}, {"measurement": "Mean OD (inter-assay mean)", "setting": "[26]", "result": 0.693, "unit": "OD"}]}
